Patent publication US20060121535

How the values were obtained:
[1] = molecular target: T1, Abl peptide NH2-EAIYAAPFAKKK-COOH (SEQ. ID. NO: 4), acrylic-labeled, photocleavable
T1 chain: EAIYAAPFAKKK

[2] = molecular target: T2, GST-Crkl (intra SH3), P46109
T2 chain: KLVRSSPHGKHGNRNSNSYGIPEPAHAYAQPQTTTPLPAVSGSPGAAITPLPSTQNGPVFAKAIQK

[3] = molecular target: GST-Crkl (full length), P46109
GST-Crkl (full length), P46109, sequence (P46109 whole entry): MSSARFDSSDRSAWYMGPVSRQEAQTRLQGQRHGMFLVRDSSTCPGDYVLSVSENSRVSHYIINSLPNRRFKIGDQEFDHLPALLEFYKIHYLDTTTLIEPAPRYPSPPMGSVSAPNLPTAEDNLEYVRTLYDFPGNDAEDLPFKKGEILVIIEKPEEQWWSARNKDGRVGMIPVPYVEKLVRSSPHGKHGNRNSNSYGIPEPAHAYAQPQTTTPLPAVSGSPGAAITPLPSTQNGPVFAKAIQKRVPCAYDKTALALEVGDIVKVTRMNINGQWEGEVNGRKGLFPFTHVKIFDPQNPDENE

GST-Crkl (SH3), P46109, sequence (P46109 120-303): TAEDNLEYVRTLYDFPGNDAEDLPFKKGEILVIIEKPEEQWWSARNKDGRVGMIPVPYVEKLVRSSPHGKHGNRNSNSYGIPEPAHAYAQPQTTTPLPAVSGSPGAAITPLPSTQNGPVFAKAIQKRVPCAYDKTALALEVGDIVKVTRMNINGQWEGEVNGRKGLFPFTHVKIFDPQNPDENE

B1: v-Abl tyrosine kinase (Calbiochem / EMD Biosciences) (protein)
chain: YITPVNSLEKHSWYHGPVSRNAAEYLLSSGINGSFLVRESESSPGQRSISLRYEGRVYHYRINTASDGKLYVSSESRFNTLAELVHHHSTVADGLITTLHYPAPKRNKPTIYGVSPNYDKWEMERTDITMKHKLGGGQYGEVYEGVWKKYSLTVAVKTLKEDTMEVEEFLKEAAVMKEIKHPNLVQLLGVCTREPPFYIITEFMTYGNLLDYLRECNRQEVSAVVLLYMATQISSAMEYLEKKNFIHRDLAARNCLVGENHLVKVADFGLSRLMTGDTYTAHAGAKFPIKWTAPESLAYNKFSIKSDVWAFGVLLWEIATYGMSPYPGIDLSQVYELLEKDYRMERPEGCPEKVYELMRACWQWNPSDRPSFAEIHQAFETMFQESSISD
extent of phosphorylation of the immobilized peptide, MALDI mass spectrometry [1]: the extent of phosphorylation was estimated to be approximately 90%
tyrosine phosphorylation of bead-immobilized substrate, anti-phosphotyrosine Western blot [2]: v-Abl displays tyrosine kinase activity toward GST-Crkl (SH3) and GST-Crkl (intra SH3) in the absence of imatinib
tyrosine phosphorylation on protein array, ECL, 2 h reaction [2]: v-Abl demonstrates a slight preference for the GST-Crkl (SH3) substrate relative to the GST-Crkl (intra SH3) substrate
tyrosine phosphorylation of bead-immobilized substrate, anti-phosphotyrosine Western blot (GST-Crkl (SH3), P46109): v-Abl displays tyrosine kinase activity toward GST-Crkl (SH3) and GST-Crkl (intra SH3) in the absence of imatinib
tyrosine phosphorylation of surface spots, ECL film (Example 9) (GST-Crkl (SH3), P46109): Qualitative detection of phosphorylated tyrosine for the 833 and 1660 ng spots of the two larger forms of GST-Crkl can be seen
tyrosine phosphorylation on protein array, ECL, 2 h reaction (GST-Crkl (SH3), P46109): v-Abl demonstrates a slight preference for the GST-Crkl (SH3) substrate relative to the GST-Crkl (intra SH3) substrate
tyrosine phosphorylation of bead-immobilized substrate, anti-phosphotyrosine Western blot [3]: GST-Crkl (full-length) is not phosphorylated by v-Abl
tyrosine phosphorylation of surface spots, ECL film (Example 9) [3]: Qualitative detection of phosphorylated tyrosine for the 833 and 1660 ng spots of the two larger forms of GST-Crkl can be seen
tyrosine phosphorylation on protein array, ECL [3]: Phosphorylation of GST-Crkl (full-length) is minimal (data not shown)
